In patent publication US20240261333A1, “NOVEL TARGETS FOR ENHANCING ANTI-TUMOR IMMUNITY” (THE BROAD INSTITUTE, INC., priority 2021, published 2024):

Key:
[1] = molecular target: T1, SERBP1 (human) (UniProt Q8NC51); assay: co-IP, IgG control, lysate of cells with N-FLAG B3GNT2; mass spectrometry
T1 sequence (looked up): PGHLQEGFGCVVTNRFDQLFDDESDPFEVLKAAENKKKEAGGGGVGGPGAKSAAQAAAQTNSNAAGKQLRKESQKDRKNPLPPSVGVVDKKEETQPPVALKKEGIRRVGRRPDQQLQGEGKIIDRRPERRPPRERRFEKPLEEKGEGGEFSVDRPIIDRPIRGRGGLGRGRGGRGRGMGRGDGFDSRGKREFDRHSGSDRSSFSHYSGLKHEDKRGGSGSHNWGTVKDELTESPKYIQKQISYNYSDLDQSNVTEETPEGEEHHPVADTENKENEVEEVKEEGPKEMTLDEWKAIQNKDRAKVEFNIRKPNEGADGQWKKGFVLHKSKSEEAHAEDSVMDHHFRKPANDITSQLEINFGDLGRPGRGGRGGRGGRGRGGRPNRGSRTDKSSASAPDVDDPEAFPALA

[2] = molecular target: HUWE1 (human) (UniProt Q7Z6Z7); assay: as above
Sequence of HUWE1 (human) (Q7Z6Z7 whole entry): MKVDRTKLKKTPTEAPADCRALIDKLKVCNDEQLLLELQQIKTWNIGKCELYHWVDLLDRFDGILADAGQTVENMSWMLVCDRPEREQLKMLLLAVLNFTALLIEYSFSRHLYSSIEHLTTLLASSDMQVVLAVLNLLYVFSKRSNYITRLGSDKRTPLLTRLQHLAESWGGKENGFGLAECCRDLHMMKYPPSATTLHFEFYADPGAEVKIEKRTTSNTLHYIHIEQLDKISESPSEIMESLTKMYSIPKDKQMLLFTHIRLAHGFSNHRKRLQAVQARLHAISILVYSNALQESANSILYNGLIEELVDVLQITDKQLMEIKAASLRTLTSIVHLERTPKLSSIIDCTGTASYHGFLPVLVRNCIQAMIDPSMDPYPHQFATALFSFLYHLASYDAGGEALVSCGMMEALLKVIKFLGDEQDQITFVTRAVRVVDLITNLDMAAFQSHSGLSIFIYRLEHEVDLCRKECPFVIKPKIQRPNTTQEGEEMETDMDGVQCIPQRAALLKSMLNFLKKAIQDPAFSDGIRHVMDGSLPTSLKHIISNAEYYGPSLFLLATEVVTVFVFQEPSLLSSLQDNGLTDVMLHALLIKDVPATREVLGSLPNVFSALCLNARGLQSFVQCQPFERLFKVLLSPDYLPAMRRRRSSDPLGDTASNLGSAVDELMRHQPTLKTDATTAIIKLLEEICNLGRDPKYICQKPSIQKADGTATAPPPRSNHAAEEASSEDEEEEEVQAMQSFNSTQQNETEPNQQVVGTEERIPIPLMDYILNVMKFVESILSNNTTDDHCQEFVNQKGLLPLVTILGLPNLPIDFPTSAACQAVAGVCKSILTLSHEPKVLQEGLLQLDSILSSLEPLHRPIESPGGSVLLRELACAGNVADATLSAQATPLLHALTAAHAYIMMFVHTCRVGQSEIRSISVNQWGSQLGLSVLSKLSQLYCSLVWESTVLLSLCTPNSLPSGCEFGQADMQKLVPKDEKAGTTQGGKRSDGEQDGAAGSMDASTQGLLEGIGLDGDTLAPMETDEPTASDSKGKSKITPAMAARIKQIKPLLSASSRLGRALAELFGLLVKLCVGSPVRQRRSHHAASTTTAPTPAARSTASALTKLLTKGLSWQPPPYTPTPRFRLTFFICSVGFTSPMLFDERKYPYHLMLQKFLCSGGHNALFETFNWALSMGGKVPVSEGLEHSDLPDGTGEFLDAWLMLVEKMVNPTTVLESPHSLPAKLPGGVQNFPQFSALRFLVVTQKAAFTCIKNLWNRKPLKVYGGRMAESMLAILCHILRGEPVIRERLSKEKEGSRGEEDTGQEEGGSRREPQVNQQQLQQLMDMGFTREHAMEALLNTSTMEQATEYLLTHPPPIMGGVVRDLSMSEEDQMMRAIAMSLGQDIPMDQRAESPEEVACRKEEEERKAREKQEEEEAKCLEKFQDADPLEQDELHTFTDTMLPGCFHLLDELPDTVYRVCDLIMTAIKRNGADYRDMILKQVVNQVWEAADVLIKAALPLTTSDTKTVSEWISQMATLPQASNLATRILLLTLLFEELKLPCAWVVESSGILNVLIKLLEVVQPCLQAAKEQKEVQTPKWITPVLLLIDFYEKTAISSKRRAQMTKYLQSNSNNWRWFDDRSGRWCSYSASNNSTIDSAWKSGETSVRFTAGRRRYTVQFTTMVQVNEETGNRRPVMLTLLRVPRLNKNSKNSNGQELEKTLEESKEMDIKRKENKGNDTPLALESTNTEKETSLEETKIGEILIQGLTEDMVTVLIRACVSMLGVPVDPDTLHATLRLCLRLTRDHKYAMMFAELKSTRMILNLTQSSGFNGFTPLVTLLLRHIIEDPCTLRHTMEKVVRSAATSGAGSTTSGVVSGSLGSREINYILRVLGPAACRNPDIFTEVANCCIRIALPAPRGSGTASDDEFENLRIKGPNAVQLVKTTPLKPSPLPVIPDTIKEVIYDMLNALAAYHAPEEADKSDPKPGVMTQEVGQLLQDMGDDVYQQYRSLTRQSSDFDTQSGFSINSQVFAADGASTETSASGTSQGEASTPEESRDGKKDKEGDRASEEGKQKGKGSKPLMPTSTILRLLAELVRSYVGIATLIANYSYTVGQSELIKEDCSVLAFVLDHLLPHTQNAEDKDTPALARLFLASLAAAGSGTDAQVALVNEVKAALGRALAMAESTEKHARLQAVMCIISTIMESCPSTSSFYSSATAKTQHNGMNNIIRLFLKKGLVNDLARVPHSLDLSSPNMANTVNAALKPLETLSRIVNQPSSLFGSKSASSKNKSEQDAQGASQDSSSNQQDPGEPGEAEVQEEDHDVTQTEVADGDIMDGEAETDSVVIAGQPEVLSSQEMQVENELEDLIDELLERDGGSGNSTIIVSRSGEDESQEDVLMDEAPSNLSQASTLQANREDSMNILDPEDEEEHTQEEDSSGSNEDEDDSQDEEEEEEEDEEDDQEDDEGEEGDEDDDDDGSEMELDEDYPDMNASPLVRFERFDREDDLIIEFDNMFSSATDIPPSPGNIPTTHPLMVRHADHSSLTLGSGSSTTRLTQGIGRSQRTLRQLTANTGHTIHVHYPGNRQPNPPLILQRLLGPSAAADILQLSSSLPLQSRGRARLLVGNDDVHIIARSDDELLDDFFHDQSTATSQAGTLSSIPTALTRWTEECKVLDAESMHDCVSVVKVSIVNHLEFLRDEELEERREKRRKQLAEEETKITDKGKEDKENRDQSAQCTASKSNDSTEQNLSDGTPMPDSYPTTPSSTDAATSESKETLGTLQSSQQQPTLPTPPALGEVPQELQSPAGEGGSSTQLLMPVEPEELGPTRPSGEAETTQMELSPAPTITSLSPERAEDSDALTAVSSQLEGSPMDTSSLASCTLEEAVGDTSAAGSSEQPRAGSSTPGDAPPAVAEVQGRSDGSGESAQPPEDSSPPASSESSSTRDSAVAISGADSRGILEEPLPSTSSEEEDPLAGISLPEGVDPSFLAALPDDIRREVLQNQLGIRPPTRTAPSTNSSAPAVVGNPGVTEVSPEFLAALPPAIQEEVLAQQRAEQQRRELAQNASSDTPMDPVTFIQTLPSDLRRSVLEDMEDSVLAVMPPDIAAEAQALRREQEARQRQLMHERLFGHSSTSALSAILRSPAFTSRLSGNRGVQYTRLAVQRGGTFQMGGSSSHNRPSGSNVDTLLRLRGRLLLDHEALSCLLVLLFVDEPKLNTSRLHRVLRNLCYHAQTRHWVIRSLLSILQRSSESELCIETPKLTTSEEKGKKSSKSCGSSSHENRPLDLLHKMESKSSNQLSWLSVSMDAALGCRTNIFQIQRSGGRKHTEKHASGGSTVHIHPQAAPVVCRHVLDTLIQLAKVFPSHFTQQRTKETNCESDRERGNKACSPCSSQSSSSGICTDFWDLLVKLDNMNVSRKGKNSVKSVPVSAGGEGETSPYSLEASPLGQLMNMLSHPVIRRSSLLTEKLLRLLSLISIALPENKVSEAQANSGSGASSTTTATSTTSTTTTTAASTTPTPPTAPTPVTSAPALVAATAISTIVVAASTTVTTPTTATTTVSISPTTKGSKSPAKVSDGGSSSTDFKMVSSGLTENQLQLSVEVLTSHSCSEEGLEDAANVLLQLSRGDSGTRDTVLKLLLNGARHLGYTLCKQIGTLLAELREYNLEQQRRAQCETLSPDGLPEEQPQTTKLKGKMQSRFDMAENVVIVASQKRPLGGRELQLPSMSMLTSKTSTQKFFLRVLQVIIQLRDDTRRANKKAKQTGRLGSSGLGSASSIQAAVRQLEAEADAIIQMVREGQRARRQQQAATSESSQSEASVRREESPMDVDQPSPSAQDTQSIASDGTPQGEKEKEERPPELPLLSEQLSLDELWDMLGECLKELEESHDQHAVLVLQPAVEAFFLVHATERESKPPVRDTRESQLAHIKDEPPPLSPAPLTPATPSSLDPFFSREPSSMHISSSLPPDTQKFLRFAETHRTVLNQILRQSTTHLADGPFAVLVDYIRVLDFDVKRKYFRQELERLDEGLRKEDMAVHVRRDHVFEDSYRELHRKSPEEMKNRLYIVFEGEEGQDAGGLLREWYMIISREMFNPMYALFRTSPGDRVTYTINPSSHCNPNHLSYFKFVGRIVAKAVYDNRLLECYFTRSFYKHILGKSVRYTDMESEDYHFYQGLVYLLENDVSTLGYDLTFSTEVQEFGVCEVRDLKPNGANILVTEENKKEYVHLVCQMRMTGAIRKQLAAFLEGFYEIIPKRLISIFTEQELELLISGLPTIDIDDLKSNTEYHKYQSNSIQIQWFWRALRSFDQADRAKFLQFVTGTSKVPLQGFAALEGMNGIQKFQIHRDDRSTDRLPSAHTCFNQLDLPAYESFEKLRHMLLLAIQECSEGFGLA

[3] = molecular target: FAU (human) (UniProt P62861); assay: as above
[4] = molecular target: PRBP1 (human) (UniProt P26599); assay: as above
[5] = molecular target: CAT (human) (UniProt P04040); assay: as above
Sequence of CAT (human) (P04040 2-527 limits assumed): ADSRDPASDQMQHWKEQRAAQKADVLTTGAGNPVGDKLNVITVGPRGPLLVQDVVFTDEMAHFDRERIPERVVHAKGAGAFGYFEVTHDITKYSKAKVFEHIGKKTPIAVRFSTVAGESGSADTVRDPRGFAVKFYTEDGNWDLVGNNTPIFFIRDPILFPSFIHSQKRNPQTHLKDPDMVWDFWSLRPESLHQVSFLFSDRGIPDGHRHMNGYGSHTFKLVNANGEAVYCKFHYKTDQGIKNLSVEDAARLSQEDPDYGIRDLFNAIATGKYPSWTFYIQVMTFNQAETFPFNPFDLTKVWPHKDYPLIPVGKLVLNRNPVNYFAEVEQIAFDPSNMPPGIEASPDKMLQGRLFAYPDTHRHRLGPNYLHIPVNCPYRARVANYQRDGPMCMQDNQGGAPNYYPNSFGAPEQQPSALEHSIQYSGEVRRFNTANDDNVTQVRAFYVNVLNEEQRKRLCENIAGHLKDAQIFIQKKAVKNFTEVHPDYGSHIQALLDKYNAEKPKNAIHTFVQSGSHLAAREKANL

[6] = molecular target: SPTAN1 (human) (UniProt Q13813); assay: as above
[7] = molecular target: GGCT (human) (UniProt O75223); assay: as above
Sequence of GGCT (human) (O75223 whole entry): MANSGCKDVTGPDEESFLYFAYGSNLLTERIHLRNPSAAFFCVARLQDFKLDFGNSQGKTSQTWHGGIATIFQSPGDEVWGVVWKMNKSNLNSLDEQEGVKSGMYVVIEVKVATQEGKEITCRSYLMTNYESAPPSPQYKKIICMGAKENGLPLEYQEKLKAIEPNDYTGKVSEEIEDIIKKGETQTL

[8] = molecular target: RPL13 (human) (UniProt P26373); assay: as above
[9] = molecular target: KRT6B (human) (UniProt P04259); assay: as above
[10] = molecular target: RPS28 (human) (UniProt P62857); assay: as above
[11] = molecular target: G3BP1 (human) (UniProt Q13283); assay: as above
[12] = molecular target: C1orf68 (human) (UniProt Q5T750); assay: as above
[13] = molecular target: T2, MOV10 (human) (UniProt Q9HCE1); assay: as above
T2 sequence (looked up): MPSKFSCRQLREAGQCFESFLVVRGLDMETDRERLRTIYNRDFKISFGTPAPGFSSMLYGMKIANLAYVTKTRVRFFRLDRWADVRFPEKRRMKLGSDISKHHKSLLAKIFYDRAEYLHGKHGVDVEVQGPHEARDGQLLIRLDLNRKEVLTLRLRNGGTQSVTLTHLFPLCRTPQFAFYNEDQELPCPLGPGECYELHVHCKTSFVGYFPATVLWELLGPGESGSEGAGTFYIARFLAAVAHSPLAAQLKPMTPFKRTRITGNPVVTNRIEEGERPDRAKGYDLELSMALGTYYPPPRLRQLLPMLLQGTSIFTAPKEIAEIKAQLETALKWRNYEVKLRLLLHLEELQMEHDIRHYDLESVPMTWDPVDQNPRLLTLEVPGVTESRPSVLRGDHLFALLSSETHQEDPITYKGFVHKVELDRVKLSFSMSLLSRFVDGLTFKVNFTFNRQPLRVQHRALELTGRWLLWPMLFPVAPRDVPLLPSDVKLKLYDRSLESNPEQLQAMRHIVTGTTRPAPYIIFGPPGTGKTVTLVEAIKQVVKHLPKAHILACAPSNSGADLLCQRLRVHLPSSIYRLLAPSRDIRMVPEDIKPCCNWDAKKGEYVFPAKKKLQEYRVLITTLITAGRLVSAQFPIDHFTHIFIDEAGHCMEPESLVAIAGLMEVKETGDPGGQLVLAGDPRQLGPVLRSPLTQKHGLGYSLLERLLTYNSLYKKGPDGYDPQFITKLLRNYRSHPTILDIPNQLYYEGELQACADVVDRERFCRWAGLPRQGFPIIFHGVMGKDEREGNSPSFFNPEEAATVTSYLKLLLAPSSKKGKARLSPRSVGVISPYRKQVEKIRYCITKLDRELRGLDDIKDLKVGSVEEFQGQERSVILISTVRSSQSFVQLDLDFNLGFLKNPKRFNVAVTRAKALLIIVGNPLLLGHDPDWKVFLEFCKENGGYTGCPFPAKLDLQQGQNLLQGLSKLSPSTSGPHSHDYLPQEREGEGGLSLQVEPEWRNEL

[14] = molecular target: PARP1 (human) (UniProt P09874); assay: as above
[15] = molecular target: PUM1 (human) (UniProt Q14671); assay: as above
[16] = molecular target: HNRNPK (human) (UniProt P61978); assay: as above
[17] = molecular target: EIF5B (human) (UniProt O60841); assay: as above
[18] = molecular target: CSE1L (human) (UniProt P55060); assay: as above
[19] = molecular target: HUWE1 (human) (UniProt Q7Z6Z7); assay: co-IP, anti-FLAG, lysate of cells with N-FLAG B3GNT2; mass spectrometry
[20] = molecular target: CAT (human) (UniProt P04040); assay: as above
[21] = molecular target: GGCT (human) (UniProt O75223); assay: as above
[22] = molecular target: T2, MOV10 (human); assay: as above

Q: Which co-IP mass spectrometry count [1] does the source give for “IgG control (Millipore Sigma 12-371) (antibody)” here?
A: 4

Q: And the co-IP mass spectrometry count [2]?
A: 0

Q: What about the co-IP mass spectrometry count [3] of the same substance?
A: 6

Q: And the co-IP mass spectrometry count [4]?
A: 7

Q: And the co-IP mass spectrometry count [5]?
A: 2

Q: And the co-IP mass spectrometry count [6]?
A: 0

Q: What about the co-IP mass spectrometry count [7] of the same substance?
A: 0

Q: What about the co-IP mass spectrometry count [8] of the same substance?
A: 6

Q: And the co-IP mass spectrometry count [9]?
A: 316

Q: What about the co-IP mass spectrometry count [10] of the same substance?
A: 0

Q: What about the co-IP mass spectrometry count [11] of the same substance?
A: 29

Q: What about the co-IP mass spectrometry count [12] of the same substance?
A: 0

Q: And the co-IP mass spectrometry count [13]?
A: 3

Q: And the co-IP mass spectrometry count [14]?
A: 0

Q: And the co-IP mass spectrometry count [15]?
A: 0

Q: What about the co-IP mass spectrometry count [16] of the same substance?
A: 8

Q: And the co-IP mass spectrometry count [17]?
A: 0

Q: What about the co-IP mass spectrometry count [18] of the same substance?
A: 0

Q: How did the co-IP mass spectrometry count [19] turn out when “N-terminal FLAG tagged B3GNT2 (from UniProt Q9NY97 1-397) (enzyme)” was run?
A: 3

Q: And the co-IP mass spectrometry count [20]?
A: 6

Q: What about the co-IP mass spectrometry count [21] of the same substance?
A: 3

Q: And the co-IP mass spectrometry count [22]?
A: 4
